Experimental data reported in patent EP4786492A1.

What was measured:
[1] = target: monkey DLL3 on CHO-K1-cyno DLL3 cells (cynomolgus monkey); assay: FACS, CHO-K1-cyno DLL3 cells, 0.16 nM antibody
[2] = target: DLL3 endogenously expressed on NCI-H82 cells (UniProt Q9NYJ7); assay: FACS on NCI-H82 cells; antibody 0.16 nM
[3] = target: mouse DLL3 on CHO-K1-mDLL3 cells (mouse) (UniProt O88516); assay: FACS, CHO-K1-mDLL3 cells, 0.032 nM antibody
[4] = target: monkey DLL3 on CHO-K1-cyno DLL3 cells (cynomolgus monkey); assay: FACS, CHO-K1-cyno DLL3 cells, 0.00128 nM antibody
[5] = target: monkey DLL3 on CHO-K1-cyno DLL3 cells (cynomolgus monkey); assay: FACS, CHO-K1-cyno DLL3 cells, 100 nM antibody
[6] = target: mouse DLL3 on CHO-K1-mDLL3 cells (mouse) (UniProt O88516); assay: FACS, CHO-K1-mDLL3 cells, 0.8 nM antibody
[7] = target: monkey DLL3 on CHO-K1-cyno DLL3 cells (cynomolgus monkey); assay: FACS, CHO-K1-cyno DLL3 cells, 0.032 nM antibody
[8] = target: human DLL3 protein expressed on CHO-K1 recombinant cells (human DLL3 extracellular segment fused to EpCAM transmembrane and intracellular regions) (human) (UniProt Q9NYJ7); assay: FACS, CHO-K1 hDLL3 cells, 0.16 nM antibody
human DLL3 protein expressed on CHO-K1 recombinant cells (human DLL3 extracellular segment fused to EpCAM transmembrane and intracellular regions) (human), sequence (Q9NYJ7 other isoform, or with tags, fused parts or gaps limits assumed): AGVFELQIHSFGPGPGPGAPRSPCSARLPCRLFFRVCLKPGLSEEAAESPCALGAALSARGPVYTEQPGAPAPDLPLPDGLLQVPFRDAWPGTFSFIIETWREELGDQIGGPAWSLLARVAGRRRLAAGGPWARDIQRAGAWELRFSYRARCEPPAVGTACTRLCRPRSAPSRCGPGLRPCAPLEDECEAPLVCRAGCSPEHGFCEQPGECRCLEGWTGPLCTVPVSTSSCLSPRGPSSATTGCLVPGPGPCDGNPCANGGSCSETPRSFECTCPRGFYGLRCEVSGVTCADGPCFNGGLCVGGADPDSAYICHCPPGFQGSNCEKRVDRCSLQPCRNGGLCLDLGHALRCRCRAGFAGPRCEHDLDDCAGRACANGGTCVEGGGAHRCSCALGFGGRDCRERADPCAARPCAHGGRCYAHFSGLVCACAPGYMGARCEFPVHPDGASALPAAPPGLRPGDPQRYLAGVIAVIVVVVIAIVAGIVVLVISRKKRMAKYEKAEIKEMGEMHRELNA

[9] = target: DLL3 endogenously expressed on NCI-H82 cells (UniProt Q9NYJ7); assay: FACS on NCI-H82 cells; antibody 20 nM
[10] = target: mouse DLL3 on CHO-K1-mDLL3 cells (mouse) (UniProt O88516); assay: FACS, CHO-K1-mDLL3 cells, 0.16 nM antibody
[11] = target: monkey DLL3 on CHO-K1-cyno DLL3 cells (cynomolgus monkey); assay: FACS, CHO-K1-cyno DLL3 cells, 0.0064 nM antibody
[12] = target: human DLL3 protein (extracellular segment, His tag) (human) (UniProt Q9NYJ7); assay: SPR (Biacore 8K), antibody captured on Protein A chip, DLL3 antigen in solution, 1:1 Langmuir fit
human DLL3 protein (extracellular segment, His tag) (human), sequence (Q9NYJ7 27-492): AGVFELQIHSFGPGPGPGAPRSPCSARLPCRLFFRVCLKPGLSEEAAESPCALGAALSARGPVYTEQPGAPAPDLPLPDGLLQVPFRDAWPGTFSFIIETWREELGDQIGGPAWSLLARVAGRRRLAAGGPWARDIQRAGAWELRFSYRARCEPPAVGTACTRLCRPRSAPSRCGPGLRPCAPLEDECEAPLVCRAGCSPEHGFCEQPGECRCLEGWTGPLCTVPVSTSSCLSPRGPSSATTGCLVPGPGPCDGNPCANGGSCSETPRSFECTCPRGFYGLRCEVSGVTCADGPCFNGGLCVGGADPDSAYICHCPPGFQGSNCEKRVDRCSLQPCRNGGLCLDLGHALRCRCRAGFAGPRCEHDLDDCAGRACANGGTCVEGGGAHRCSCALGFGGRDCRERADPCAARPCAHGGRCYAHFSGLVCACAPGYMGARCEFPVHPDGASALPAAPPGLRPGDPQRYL

[13] = target: DLL3 endogenously expressed on NCI-H82 cells (UniProt Q9NYJ7); assay: FACS on NCI-H82 cells; antibody 100 nM
[14] = target: human DLL3 protein expressed on CHO-K1 recombinant cells (human DLL3 extracellular segment fused to EpCAM transmembrane and intracellular regions) (human) (UniProt Q9NYJ7); assay: FACS, CHO-K1 hDLL3 cells, 0.032 nM antibody
[15] = target: monkey DLL3 on CHO-K1-cyno DLL3 cells (cynomolgus monkey); assay: FACS, CHO-K1-cyno DLL3 cells, 20 nM antibody
[16] = target: mouse DLL3 on CHO-K1-mDLL3 cells (mouse) (UniProt O88516); assay: FACS, CHO-K1-mDLL3 cells, 4 nM antibody
[17] = target: DLL3 endogenously expressed on NCI-H82 cells (UniProt Q9NYJ7); assay: FACS on NCI-H82 cells; antibody 0.00128 nM
[18] = target: human delta-like ligand 3 (DLL3) on SHP77 cells (human) (UniProt Q9NYJ7); assay: FACS on SHP77 cells
human delta-like ligand 3 (DLL3) on SHP77 cells (human), sequence (Q9NYJ7 27-618, stated change not applied): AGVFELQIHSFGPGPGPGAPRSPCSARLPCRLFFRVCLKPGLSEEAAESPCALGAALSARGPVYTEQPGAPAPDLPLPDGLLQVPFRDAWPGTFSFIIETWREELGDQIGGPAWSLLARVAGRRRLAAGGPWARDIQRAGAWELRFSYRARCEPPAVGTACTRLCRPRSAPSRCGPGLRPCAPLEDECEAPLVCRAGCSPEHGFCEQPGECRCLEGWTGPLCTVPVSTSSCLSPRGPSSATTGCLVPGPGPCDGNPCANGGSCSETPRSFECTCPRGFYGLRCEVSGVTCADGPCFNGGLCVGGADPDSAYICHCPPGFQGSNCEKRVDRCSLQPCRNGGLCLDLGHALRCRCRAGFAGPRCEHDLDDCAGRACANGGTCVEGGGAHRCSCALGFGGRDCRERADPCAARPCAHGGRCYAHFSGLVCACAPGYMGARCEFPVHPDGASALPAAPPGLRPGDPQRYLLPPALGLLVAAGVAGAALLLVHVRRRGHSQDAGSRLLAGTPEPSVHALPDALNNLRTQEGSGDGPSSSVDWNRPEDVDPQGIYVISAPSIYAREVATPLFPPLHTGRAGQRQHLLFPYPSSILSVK

[19] = target: human DLL3 protein expressed on CHO-K1 recombinant cells (human DLL3 extracellular segment fused to EpCAM transmembrane and intracellular regions) (human) (UniProt Q9NYJ7); assay: FACS, CHO-K1 hDLL3 cells, 0.0064 nM antibody
[20] = target: DLL3 endogenously expressed on NCI-H82 cells (UniProt Q9NYJ7); assay: FACS on NCI-H82 cells; antibody 0.8 nM
[21] = target: mouse DLL3 on CHO-K1-mDLL3 cells (mouse) (UniProt O88516); assay: FACS, CHO-K1-mDLL3 cells, 20 nM antibody
[22] = target: human DLL3 protein expressed on CHO-K1 recombinant cells (human DLL3 extracellular segment fused to EpCAM transmembrane and intracellular regions) (human) (UniProt Q9NYJ7); assay: FACS, CHO-K1 hDLL3 cells, 0.00128 nM antibody
[23] = target: DLL3 endogenously expressed on NCI-H82 cells (UniProt Q9NYJ7); assay: FACS on NCI-H82 cells; antibody 0.0064 nM
[24] = target: human DLL4 protein (Acro, Cat. No. DL4-H5227) (human) (UniProt Q9NR61); assay: ELISA, coated hDLL4; maximum over 0.1, 1, 10, 100 nM antibody
human DLL4 protein (Acro, Cat. No. DL4-H5227) (human), sequence (Q9NR61 27-524 limits assumed): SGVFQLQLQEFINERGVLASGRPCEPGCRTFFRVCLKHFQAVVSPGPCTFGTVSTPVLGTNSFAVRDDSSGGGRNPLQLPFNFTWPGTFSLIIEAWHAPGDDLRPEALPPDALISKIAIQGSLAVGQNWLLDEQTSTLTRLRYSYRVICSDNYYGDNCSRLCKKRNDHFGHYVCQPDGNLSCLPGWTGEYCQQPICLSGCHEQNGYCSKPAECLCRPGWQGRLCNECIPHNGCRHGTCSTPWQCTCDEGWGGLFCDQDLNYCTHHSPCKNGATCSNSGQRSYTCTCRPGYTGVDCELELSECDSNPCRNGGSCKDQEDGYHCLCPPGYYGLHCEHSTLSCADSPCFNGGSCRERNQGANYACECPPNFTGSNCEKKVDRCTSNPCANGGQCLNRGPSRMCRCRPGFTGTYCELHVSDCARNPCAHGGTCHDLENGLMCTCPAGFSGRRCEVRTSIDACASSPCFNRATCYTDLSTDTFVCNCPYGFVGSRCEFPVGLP

[25] = target: monkey DLL3 on CHO-K1-cyno DLL3 cells (cynomolgus monkey); assay: FACS, CHO-K1-cyno DLL3 cells, 4 nM antibody
[26] = target: human DLL3 protein expressed on CHO-K1 recombinant cells (human DLL3 extracellular segment fused to EpCAM transmembrane and intracellular regions) (human) (UniProt Q9NYJ7); assay: FACS, CHO-K1 hDLL3 cells, 0.8 nM antibody
[27] = target: human DLL3 protein expressed on CHO-K1 recombinant cells (human DLL3 extracellular segment fused to EpCAM transmembrane and intracellular regions) (human) (UniProt Q9NYJ7); assay: FACS, CHO-K1 hDLL3 cells, 4 nM antibody
[28] = target: human DLL3 protein expressed on CHO-K1 recombinant cells (human DLL3 extracellular segment fused to EpCAM transmembrane and intracellular regions) (human) (UniProt Q9NYJ7); assay: FACS, CHO-K1 hDLL3 cells, 20 nM antibody
[29] = target: mouse DLL3 on CHO-K1-mDLL3 cells (mouse) (UniProt O88516); assay: FACS, CHO-K1-mDLL3 cells, 100 nM antibody
[30] = target: human DLL1 protein (Acro, Cat. No. DL1-H52H8) (human) (UniProt O00548); assay: ELISA, coated hDLL1; maximum over 0.1, 1, 10, 100 nM antibody
human DLL1 protein (Acro, Cat. No. DL1-H52H8) (human), sequence (O00548 18-540 limits assumed): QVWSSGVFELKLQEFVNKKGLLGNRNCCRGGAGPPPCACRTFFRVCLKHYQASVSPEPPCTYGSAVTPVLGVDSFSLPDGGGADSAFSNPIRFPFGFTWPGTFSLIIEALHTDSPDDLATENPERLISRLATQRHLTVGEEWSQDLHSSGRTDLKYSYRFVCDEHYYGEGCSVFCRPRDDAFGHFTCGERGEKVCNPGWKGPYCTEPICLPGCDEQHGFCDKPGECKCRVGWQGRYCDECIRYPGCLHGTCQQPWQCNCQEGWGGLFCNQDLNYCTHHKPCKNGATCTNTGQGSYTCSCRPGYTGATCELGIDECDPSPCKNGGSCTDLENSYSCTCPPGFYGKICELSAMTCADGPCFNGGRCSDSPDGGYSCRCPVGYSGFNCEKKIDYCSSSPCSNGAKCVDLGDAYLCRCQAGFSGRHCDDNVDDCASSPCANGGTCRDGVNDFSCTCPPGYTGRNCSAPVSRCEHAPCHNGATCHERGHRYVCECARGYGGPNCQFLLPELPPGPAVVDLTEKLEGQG

[31] = target: mouse DLL3 on CHO-K1-mDLL3 cells (mouse) (UniProt O88516); assay: FACS, CHO-K1-mDLL3 cells, 0.00128 nM antibody
[32] = target: mouse DLL3 on CHO-K1-mDLL3 cells (mouse) (UniProt O88516); assay: FACS, CHO-K1-mDLL3 cells, 0.0064 nM antibody
[33] = target: DLL3 endogenously expressed on NCI-H82 cells (UniProt Q9NYJ7); assay: FACS on NCI-H82 cells; antibody 4 nM
[34] = target: monkey DLL3 on CHO-K1-cyno DLL3 cells (cynomolgus monkey); assay: FACS, CHO-K1-cyno DLL3 cells, 0.8 nM antibody
[35] = target: DLL3 endogenously expressed on NCI-H82 cells (UniProt Q9NYJ7); assay: FACS on NCI-H82 cells; antibody 0.032 nM
[36] = target: human DLL3 protein expressed on CHO-K1 recombinant cells (human DLL3 extracellular segment fused to EpCAM transmembrane and intracellular regions) (human) (UniProt Q9NYJ7); assay: FACS, CHO-K1 hDLL3 cells, 100 nM antibody

monkey DLL3 on CHO-K1-cyno DLL3 cells (cynomolgus monkey), sequence (chain, as listed by the source limits assumed): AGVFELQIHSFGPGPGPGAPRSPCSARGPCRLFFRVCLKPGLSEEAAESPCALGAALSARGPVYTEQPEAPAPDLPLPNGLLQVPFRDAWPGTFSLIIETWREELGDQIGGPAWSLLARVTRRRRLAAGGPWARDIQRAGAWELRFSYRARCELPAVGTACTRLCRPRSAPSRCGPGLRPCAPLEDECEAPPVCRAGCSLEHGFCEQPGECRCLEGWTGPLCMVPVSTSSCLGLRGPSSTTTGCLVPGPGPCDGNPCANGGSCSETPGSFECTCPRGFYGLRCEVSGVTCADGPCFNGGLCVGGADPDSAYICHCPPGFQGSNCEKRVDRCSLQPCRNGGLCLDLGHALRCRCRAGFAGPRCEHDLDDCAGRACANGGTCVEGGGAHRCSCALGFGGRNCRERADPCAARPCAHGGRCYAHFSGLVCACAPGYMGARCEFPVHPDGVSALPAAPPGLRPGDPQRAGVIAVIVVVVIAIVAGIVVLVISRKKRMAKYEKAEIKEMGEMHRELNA
DLL3 endogenously expressed on NCI-H82 cells, sequence (Q9NYJ7 27-618): as the sequence (Q9NYJ7 27-618, stated change not applied) above
mouse DLL3 on CHO-K1-mDLL3 cells (mouse), sequence (O88516 other isoform, or with tags, fused parts or gaps limits assumed): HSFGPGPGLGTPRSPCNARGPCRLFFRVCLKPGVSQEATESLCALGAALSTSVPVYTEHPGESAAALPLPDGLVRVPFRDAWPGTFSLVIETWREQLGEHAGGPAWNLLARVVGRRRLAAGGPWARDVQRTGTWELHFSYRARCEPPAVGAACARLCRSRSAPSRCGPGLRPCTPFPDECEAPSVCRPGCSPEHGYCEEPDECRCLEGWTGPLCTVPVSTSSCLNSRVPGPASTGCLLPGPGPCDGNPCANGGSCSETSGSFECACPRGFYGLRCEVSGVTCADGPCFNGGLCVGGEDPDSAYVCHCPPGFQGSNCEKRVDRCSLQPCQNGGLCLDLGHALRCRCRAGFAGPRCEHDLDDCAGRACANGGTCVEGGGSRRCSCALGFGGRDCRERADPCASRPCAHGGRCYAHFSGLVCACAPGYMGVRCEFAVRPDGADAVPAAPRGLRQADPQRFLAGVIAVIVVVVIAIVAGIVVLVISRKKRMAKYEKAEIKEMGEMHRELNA

B1: Hab014VL2VH1-hFc (scFv, part only; not given: scFv linker and human IgG1 Fc, V domains shown, not shown: another chain or arm of the molecule; a dimerising Fc or GST; small tags and cut ends)
VL: DIQMTQSPSSLSASVGDRVTITCKASEDIYNRLAWYQQKPGKVPKLLISGATSLETGVPSRFSGSGSGKDFTLTISSLQPEDVATYYCQQYWSLPWTFGGGTKVEIK
VH: EVQLVQSGAEVKKPGASVKVSCKASGYTFTDYYMNWVRQAPGQRLEWMGDINPNHGDTGYNQKFTGRVTITVDKSASTAYMELSSLRSEDTAVYYCARNFFYYGTTYGWYFDVWGQGTTVTVSS
- MFI [1]: 1670 MFI
- MFI [2]: 428
- MFI [3]: 152 MFI
- MFI [4]: 200 MFI
- MFI [5]: 33000 MFI
- MFI [6]: 272 MFI
- MFI [7]: 661 MFI
- MFI [8]: 2380 MFI
- MFI [9]: 754
- MFI [10]: 204 MFI
- MFI [11]: 287 MFI
- Kd [12]: 0.111 nM
- koff [12]: 0.000135 s⁻¹
- kon [12]: 1.21e+06 M⁻¹ s⁻¹
- MFI [13]: 1110
- MFI [14]: 705 MFI
- MFI [15]: 33000 MFI
- MFI [16]: 308 MFI
- MFI [17]: 113
- MFI at 0.00128 nM [18]: 91 MFI
- MFI at 0.0064 nM [18]: 99 MFI
- MFI at 0.032 nM [18]: 120 MFI
- MFI at 0.16 nM [18]: 207 MFI
- MFI at 0.8 nM [18]: 407 MFI
- MFI at 4 nM [18]: 610 MFI
- MFI at 20 nM [18]: 796 MFI
- MFI at 100 nM [18]: 1110 MFI
- MFI [19]: 322 MFI
- MFI [20]: 554
- MFI [21]: 355 MFI
- MFI [22]: 231 MFI
- MFI [23]: 142
- Emax of OD450 nm binding value [24]: 0.25 OD450 nm
- MFI [25]: 25300 MFI
- MFI [26]: 8420 MFI
- MFI [27]: 15400 MFI
- MFI [28]: 16100 MFI
- MFI [29]: 374 MFI
- Emax of OD450 nm binding value [30]: 0.17 OD450 nm
- MFI [31]: 109 MFI
- MFI [32]: 118 MFI
- MFI [33]: 624
- MFI [34]: 10100 MFI
- MFI [35]: 217
- MFI [36]: 16400 MFI
